Source: PMC12724015

Molecular target: peptide derived from subunit 5 of the pertussis toxin (PTX) (…) (Bordetella pertussis)

Bordetella pertussis DsbA (BperDsbA), mature, oxidized (from UniProt Q7W0K2 28-209) (enzyme)
fraction of reduced BperDsbA (AMS alkylation, SDS-PAGE, densitometry) after 5, 10 and 30 s of 50 uM oxidized BperDsbA with 50 uM PTX peptide: 90%
